Data from patent US20050244333A1 (CITY OF HOPE, published 2005).

Assays:
[1] = target: T1, carcinoembryonic antigen (CEA) (human, UniProt P06731 35-685, biotinylated with EZ-Link Sulfo-NHS-LC-Biotin for the SPR assay); test: SPR, Biacore 1000; biotinylated CEA on SA chip, antibody injected at 3.12-100 nM, bivalent analyte model
T1 construct: Purified CEA; biotinylated and immobilised on a streptavidin chip for SPR, unlabelled in the immunoreactivity assay; also called purified CEA; CEA-biotin
T1 sequence (looked up): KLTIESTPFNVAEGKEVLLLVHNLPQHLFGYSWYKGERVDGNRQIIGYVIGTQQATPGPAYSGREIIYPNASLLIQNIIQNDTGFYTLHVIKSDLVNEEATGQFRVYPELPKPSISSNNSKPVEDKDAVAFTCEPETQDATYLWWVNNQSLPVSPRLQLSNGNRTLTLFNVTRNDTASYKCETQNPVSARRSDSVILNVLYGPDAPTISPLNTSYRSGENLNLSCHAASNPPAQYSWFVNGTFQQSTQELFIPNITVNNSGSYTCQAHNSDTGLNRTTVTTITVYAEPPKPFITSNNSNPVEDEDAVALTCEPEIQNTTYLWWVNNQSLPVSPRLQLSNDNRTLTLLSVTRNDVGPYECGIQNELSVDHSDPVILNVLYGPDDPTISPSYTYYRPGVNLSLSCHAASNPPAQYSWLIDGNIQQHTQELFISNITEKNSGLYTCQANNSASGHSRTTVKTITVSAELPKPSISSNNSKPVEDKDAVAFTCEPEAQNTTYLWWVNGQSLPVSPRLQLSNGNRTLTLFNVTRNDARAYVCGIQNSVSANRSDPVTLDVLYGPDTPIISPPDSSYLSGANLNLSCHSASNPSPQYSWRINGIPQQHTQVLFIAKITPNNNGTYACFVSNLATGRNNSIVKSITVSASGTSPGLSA
Description: (§1) The binding affinity of the antibodies to purified CEA was determined by surface plasmon resonance (SPR) on a Biacore 1000 (Biacore AB, Uppsala, SW). CEA was biotinylated using the EZ-Link Sulfo-NHS-LC-Biotin kit (Pierce, Rockford, Ill.) and immobilized to a SA biosensor chip (Biacore Inc.) in HBS buffer. A series of increasing antibody concentrations (3.12, 6.25, 12.5, 25, 50, and 100 nM) were injected over a low density (175 RU) of the immobilized CEA-biotin for the association and dissociation phase, with regeneration by a single pulse of 6 M GuHCl. The data were analyzed by BIAevaluation (v3.0) software using the bivalent analyte model to calculate the KA=kₒₙ/koff. Antibody concentrations were determined by amino acid analysis.

[2] = target: T1, carcinoembryonic antigen (CEA); test: SPR, Biacore 1000; biotinylated CEA on SA chip, antibody injected at 3.12-100 nM, bivalent analyte model; KA = kon/koff
Description: as §1

B1: humanized T84.66 antibody M5A (antibody, V domains shown)
VH: EVQLVESGGGLVQPGGSLRLSCAASGFNIKDTYMHWVRQAPGKGLEWVARIDPANGNSKYADSVKGRFTISADTSKNTAYLQMNSLRAEDTAVYYCAPFGYYVSDYAMAYWGQGTLVTVSS
VL: DIQLTQSPSSLSASVGDRVTITCRAGESVDIFGVGFLHWYQQKPGKAPKLLIYRASNLESGVPSRFSGSGSRTDFTLTISSLQPEDFATYYCQQTNEDPYTFGQGTKVEIK
notes: For the immunoreactivity assay the antibody was labelled with 131I; also called M5A mAb; 131I-M5A
[1]
  koff: 3.01e-05 s⁻¹
  kon: 330000 M⁻¹ s⁻¹
[2]
  Ka: 1.1e+10 M⁻¹

B2: humanized T84.66 antibody M5B (antibody, V domains shown)
VH: EVQLVESGGGLVQPGGSLRLSCAASGFNIKDTYMHWVRQAPGKGLEWVARIDPANGNSKYVPKFQGRATISADTSKNTAYLQMNSLRAEDTAVYYCAPFGYYVSDYAMAYWGQGTLVTVSS
VL: DIQLTQSPSSLSASVGDRVTITCRAGESVDIFGVGFLHWYQQKPGKAPKLLIYRASNLESGVPSRFSGSGSRTDFTLTISSLQPEDFATYYCQQTNEDPYTFGQGTKVEIK
notes: Expressed in NS0 cells as an intact antibody with constant regions of a human IgG and a kappa light chain; For the immunoreactivity assay the antibody was labelled with 131I; also called M5B mAb
[1]
  koff: 2.56e-05 s⁻¹
  kon: 488000 M⁻¹ s⁻¹
[2]
  Ka: 1.9e+10 M⁻¹
